Substitutions are numbered along the chain they refer to.

B1: M35-G04 (antibody, V domains shown)
VH: EVQLLESGGGLVQPGGSLRLSCAASGFTFSYYHMSWVRQAPGKGLEWVSVISPSGGSTKYADSVKGRFTISRDNSKNTLYLQMNSLRAEDTAVYYCARGGSSDYAWGSYRRPYYFDYWGQGTLVTVSS
VL: DIQMTQSPATLSLSPGERATLSCRASQSVSSYLAWYQQKPGQAPRLLIYDASNRATGIPARFSGSGSGTDFTLTISSLEPEDFAVYYCQQRSNWPRGFTFGPGTKVDIK
notes: Only variable domains printed; also called 559A-M35-G04; 559A-M0035-G04
B2: DX-2922 (antibody, V domains shown)
VH: EVQLLESGGGLVQPGGSLRLSCAASGFTFSHYLMTWVRQAPGKGLEWVSYISPSGGHTIYADSVKGRFTISRDNSKNTLYLQMNSLRAEDTAVYYCARVARGIAARSRTSYFDYWGQGTLVTVSS
VL: EIVLTQSPGTLSLSPGERATLSCRTSQFVNSNYLAWYQQKPGQAPRLLIYGASSRATGIPDRFSGSGSGTDFTLTISRLEPEDFAVYYCQQSSRTPWTFGQGTKVEIK
notes: Germlined IgG produced in CHO cells; only the variable domains are printed; also called X101-A01; 559A-X0101-A01
B3: X115-B07 (antibody, V domains shown)
VH: B2 VH with R98M, A100G, R101Q, A104R, A105G, D113A, Y114Q
VL: B2 VL
notes: only variable domains given; also called 559A-X115-B07; 559A-X0115-B07
B4: X115-F02 (Fab, V domains shown)
VH: EVQLLESGGGLVQPGGSLRLSCAASGFTFSHYIMMWVRQAPGKGLEWVSGIYSSGGITVYADSVKGRFTISRDNSKNTLYLQMNSLRAEDTAVYYCAYRRIGVPRRDEFDIWGQGTMVTVSS
VL: DIQMTQSPSTLSASVGDRVTITCRASQSISSWLAWYQQKPGKAPKLLIYKASTLESGVPSRFSGSGSGTEFTLTISSLQPDDFATYYCQQYNTYWTFGQGTKVEIK
notes: also called 559A-X115-F02; 559A-X0115-F02
B5: X115-A03 (antibody, V domains shown)
VH: B4 VH with Y98W, E108S, I111M
VL: B4 VL
notes: only variable domains given; also called 559A-X115-A03; 559A-X0115-A03
B6: X115-D01 (antibody, V domains shown)
VH: EVQLLESGGGLVQPGGSLRLSCAASGFTFSIYSMHWVRQAPGKGLEWVSSIYPSRGMTWYADSVKGRFTISRDNSKNTLYLQMNSLRAEDTAVYYCAYRRTGIPRRDAFDIWGQGTMVTVSS
VL: B4 VL
notes: only variable domains given; also called 559A-X115-D01; 559A-X0115-D01
B7: X115-G04 (antibody, V domains shown)
VH: B4 VH with I101T
VL: B4 VL
notes: only variable domains given; also called 559A-X115-G04; 559A-X0115-G04
B8: M29-D09 (Fab, V domains shown)
VH: EVQLLESGGGLVQPGGSLRLSCAASGFTFSWYTMVWVRQAPGKGLEWVSYIYPSGGATFYADSVKGRFTISRDNSKNTLYLQMNSLRAEDTAVYYCAMGSYDYIWGFYSDHWGQGTLVTVSS
VL: QSALTQPPTVSVSPGQTARITCSGNKLGDKYVAWYQQKPGQSPMLVIYQDTKRPSRVSERFSGSNSANTATLSISGTQALDEADYYCQAWDSSIVIFGGGTRLTVL
notes: also called 559A-M29-D09 (sFab); 559A-M0029-D09
B9: M145-D11 (Fab, V domains shown)
VH: EVQLLESGGGLVQPGGSLRLSCAASGFTFSHYRMSWVRQAPGKGLEWVSSIYPSGGRTVYADSVKGRFTISRDNSKNTLYLQMNSLRAEDTAVYYCAKDKFEWRLLFRGIGNDAFDIWGQGTMVTVSS
VL: QSVLTQPPSVSVSPGQTASITCSGDKLGDKYTSWYQQRPGQSPVLVIYQDIKRPSGIPERFSGSNSGNTATLTISGTQAMDEADYYCQAWDSPNARVFGSGTKVTVL
notes: also called 559A-M145-D11 (sFab); 559A-M0145-D11
B10: M06-D09 (antibody, V domains shown)
VH: EVQLLESGGGLVQPGGSLRLSCAASGFTFSFYYMVWVRQAPGKGLEWVSVIYPSGGITVYADSVKGRFTISRDNSKNTLYLQMNSLRAEDTAVYYCARDKWAVMPPYYYYAMDVWGQGTTVTVSS
VL: DIQMTQSPSSLSASVGDRVTITCRASQSIRNYLNWYQQKPGKAPNLLIYAASTLQSGVPARFSGSGSGTDFTLTISSLQPEDFATYYCQQLSGYPHTFGQGTKLEIK
notes: Only variable domains printed; also called M6-D09; 559A-M06-D09
B11: DX-2922 (antibody, V domains shown)
VH: B2 VH
VL: B2 VL
notes: also called X101-A01; 559A-X0101-A01
B12: X115-B07 (antibody, V domains shown)
VH: B2 VH with R98M, A100G, R101Q, A104R, A105G, D113A, Y114Q
VL: B2 VL
notes: also called 559A-X115-B07; 559A-X0115-B07
B13: X115-F02 (Fab, V domains shown)
VH: B4 VH
VL: B4 VL
notes: as for B4
B14: X115-A03 (antibody, V domains shown)
VH: B4 VH with Y98W, E108S, I111M
VL: B4 VL
notes: also called 559A-X115-A03; 559A-X0115-A03
B15: X115-G04 (antibody, V domains shown)
VH: B4 VH with I101T
VL: B4 VL
notes: also called 559A-X115-G04; 559A-X0115-G04
B16: X115-D01 (antibody, V domains shown)
VH: B6 VH
VL: B4 VL
notes: also called 559A-X115-D01; 559A-X0115-D01
B17: X67-F01 (IgG) (antibody, V domains shown)
VH: EVQLLESGGGLVQPGGSLRLSCAASGFTFSAYSMIWVRQAPGKGLEWVSYIRPSGGRTTYADSVKGRFTISRDNSKNTLYLQMNSLRAEDTAVYYCARGGLLLWQRELKSNYFDYWGQGTLVTVSS
VL: DIQMTQSPSSLSAFVGDRVTITCRASQPIDNYLNWYHQKPGKAPKLLIYAASRLQSGVPSRLSGSGFGTDFTLTISSLQPEDFGNYYCQQSYTVPYTFGGGTKVEIR
notes: printed HC runs into CH1
B18: X67-H04 (IgG) (antibody, V domains shown)
VH: B17 VH with Q105E
VL: B17 VL
notes: printed HC runs into CH1; also called 559A-X67-H04
B19: X67-F10 (IgG) (antibody, V domains shown)
VH: B17 VH with Q105T
VL: B17 VL
notes: printed HC runs into CH1

The first assay deals with T1, pKal catalytic domain Mutant 1 (human, UniProt P03952 391-638, limits assumed).
T1 construct: domain: catalytic domain; Expressed in Pichia pastoris, purified by IMAC; not shown: His tag fusion
Briefly: Ki,app: enzyme inhibition, fluorescent substrate, 2 h pre-incubation at 30 C, tight-binding fit. How it is done:
(§1) Apparent Inhibition constants (K_{i,app} values) were measured by pre-incubating enzyme and inhibitor solutions prior to initiating the reactions with substrate. Enzyme and inhibitor were pre-incubated for 2 hours at 30° C. in a 96-well plate by adding 10 μL of a 10× enzyme solution and 10 μL of 10× inhibitor solutions to 70 μL of reaction buffer. Reactions were initiated by the addition of 10 μL of a 10× concentrated stock of substrate, and were monitored at 30° C. in a fluorescence plate reader with the excitation and emission wavelengths set at 360 nm/460 nm, respectively. Kinetic data were acquired by the increase in fluorescence, and initial rates for each condition were plotted against the total inhibitor concentration. The data was fit to the following equation for tight binding inhibitors: […]
Molecule B1 returned a Ki of 90 pM.

As to B2, the Ki was found to be 14000 pM.

For B3, the Ki turned out to be 4700 pM.

As to B4, the Ki was found to be 140 pM.

B5 had a Ki of 230 pM.

In the case of B6, the Ki came to 260 pM.

Regarding B7, the Ki was determined as 400 pM.

With B8, the Ki came to 270 pM.

Molecule B9 came in with a Ki of 230 pM.

As to B10, the Ki was determined as 3400 pM.

A further assay concerns the target T2, pKal catalytic domain Mutant 2 (human, UniProt P03952 391-638, limits assumed).
T2 construct: domain: catalytic domain; Expressed in Pichia pastoris, purified by IMAC; not shown: His tag fusion
The description is as above. How it is done: as §1
Molecule B1 registered a Ki of 1100 pM.

The molecule B2 yielded a Ki of 20000 pM.

In turn, B3 gave a Ki of 47000 pM.

Regarding B4, the Ki was found to be 5900 pM.

Molecule B5 had a Ki of 3700 pM.

Turning to B6, the Ki came out at 2500 pM.

In turn, B7 returned a Ki of 2200 pM.

Molecule B8 showed a Ki of 340 pM.

Take B9: the Ki was found to be 100 pM.

With B10, the Ki amounted to 13500 pM.

For the next assay, the target named is T3, wild type pKal catalytic domain (human, UniProt P03952 391-638, limits assumed).
T3 construct: domain: catalytic domain; The expression in Pichia pastoris with a His tag and IMAC purification is told of the mutants; also called WT cat; Domain; not shown: His tag fusion
The description is as above. On the procedure:
as §1
Consider B1, for which the Ki was 800 pM.

On to B2, for which the Ki turned out to be 220 pM.

The molecule B4 returned a Ki of 90 pM.

In the case of B5, the Ki was 160 pM.

As to B6, the Ki was 180 pM.

B7 gave a Ki of 300 pM.

B8: the Ki amounted to 240 pM.

The molecule B9 had a Ki of 160 pM.

For B10, the Ki came to 2500 pM.

For a further assay, the target named is T4, human plasma kallikrein (full length, active) (human, UniProt P03952 20-390; P03952 391-638).
T4 construct: two disulfide linked polypeptides; also called Full length pKal; pKal
T4 sequence (P03952 20-390, chain 1 of 2): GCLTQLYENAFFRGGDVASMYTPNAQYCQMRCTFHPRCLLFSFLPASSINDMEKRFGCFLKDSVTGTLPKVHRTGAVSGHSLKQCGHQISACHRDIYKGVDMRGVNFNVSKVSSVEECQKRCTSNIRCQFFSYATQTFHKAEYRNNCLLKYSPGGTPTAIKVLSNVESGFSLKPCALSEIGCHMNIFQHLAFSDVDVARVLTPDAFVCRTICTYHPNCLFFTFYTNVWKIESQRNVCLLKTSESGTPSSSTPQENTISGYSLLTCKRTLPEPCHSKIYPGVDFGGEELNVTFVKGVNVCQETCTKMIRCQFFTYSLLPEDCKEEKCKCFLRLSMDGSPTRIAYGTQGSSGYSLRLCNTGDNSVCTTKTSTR
T4 sequence (P03952 391-638, chain 2 of 2): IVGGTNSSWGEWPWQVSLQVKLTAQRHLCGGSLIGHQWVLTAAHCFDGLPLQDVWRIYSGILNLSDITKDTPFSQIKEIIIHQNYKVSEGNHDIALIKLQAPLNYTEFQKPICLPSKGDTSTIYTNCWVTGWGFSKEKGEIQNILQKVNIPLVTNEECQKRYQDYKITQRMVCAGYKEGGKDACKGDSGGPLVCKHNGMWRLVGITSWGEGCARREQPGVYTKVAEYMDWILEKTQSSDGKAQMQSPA
The description is as above. How it is done: as §1
Molecule B1 showed a Ki of 2900 pM.

The molecule B2 came in with a Ki of 200 pM.

As for B3, the Ki came to 330 pM.

B4 gave a Ki of 89 pM.

B5 showed a Ki of 160 pM.

B6 gave a Ki of 180 pM.

In turn, B7 came in with a Ki of 600 pM.

With B8, the Ki is 700 pM.

Turning to B9, the Ki came out at 790 pM.

B10 displayed a Ki of 5900 pM.

Another assay concerns the target T5, wild type pKal catalytic domain (human, UniProt P03952 391-638, limits assumed).
T5 construct: domain: catalytic domain; also called WT cat; Domain; not shown: His tag fusion
Kind of assay: apparent Ki (Ki,app), enzyme inhibition, wild type pKal catalytic domain. How it is done: as §1
As to B11, the Ki is 220 pM.

For the molecule B12, the Ki is 130 pM.

B13: the Ki turned out to be 90 pM.

In the case of B14, the Ki was 160 pM.

B15: the Ki was determined as 300 pM.

For B16, the Ki is 180 pM.

The target in another assay is T6, pKal catalytic domain Mutant 2 (human, UniProt P03952 391-638, limits assumed).
T6 construct: domain: catalytic domain; Expressed in Pichia pastoris, purified by IMAC; not shown: His tag fusion
Briefly: apparent Ki (Ki,app), enzyme inhibition, pKal catalytic domain Mutant 2. On the procedure:
as §1
B11: the Ki turned out to be 20000 pM.

On to B12, for which the Ki was found to be 47000 pM.

Take B13: the Ki was found to be 5900 pM.

With B14, the Ki worked out at 3700 pM.

For the molecule B15, the Ki is 2200 pM.

Turning to B16, the Ki stood at 2500 pM.

For the next assay, the target named is T7, human plasma kallikrein (human, UniProt P03952 20-390; P03952 391-638).
T7 construct: two disulfide linked chains; also called pKal; human pKal
T7 sequence (P03952 20-390, chain 1 of 2): as the sequence (P03952 20-390, chain 1 of 2) above
T7 sequence (P03952 391-638, chain 2 of 2): as the sequence (P03952 391-638, chain 2 of 2) above
Briefly: Ki,app as an IgG, steady state enzyme kinetics, inhibition of human pKal.
B17: the Ki amounted to 900 pM.

The molecule B18 came in with a Ki of 3600 pM.

The molecule B19 registered a Ki of 1300 pM.

The target of another assay is T8, pKal catalytic domain Mutant 1 (human, UniProt P03952 391-638, limits assumed).
T8 construct: domain: catalytic domain; Expressed in Pichia pastoris, purified by IMAC; not shown: His tag fusion
Kind of assay: apparent Ki (Ki,app), enzyme inhibition, pKal catalytic domain Mutant 1. How it is done: as §1
For B11, the Ki is 14000 pM.

In the case of B12, the Ki was 4700 pM.

For B13, the Ki turned out to be 140 pM.

Take B14: the Ki stood at 230 pM.

In the case of B15, the Ki amounted to 400 pM.

With B16, the Ki was 260 pM.

Values taken from US9266964.
